{"source": "patent US20050287518A1", "key": {"[1]": {"biological_target": "GFP-Rac1 fusion (EGFP mutant, 6His construct) bound to GTPγS [GFP: P42212]", "assay": "FRET in solution at saturating (1 micromolar) Alexa-PBD, GFP-Rac1 loaded with varied GTPγS"}, "[2]": {"biological_target": "GFP-Rac1 fusion (EGFP mutant, 6His construct) bound to GTPγS [GFP: P42212]", "assay": "FRET titration in solution: 200 nM GFP-Rac1-GTPγS, varied Alexa-PBD, Alexa/GFP emission ratio fit to Y=A*X/(Kd+X)"}}, "data": [{"substance": "Alexa-PBD (PBD, fragment of human PAK1, residues 65-150, with a single cysteine added in the penultimate N-terminal position, C-terminal 6His fusion, labeled with Alexa 546) (from UniProt Q13153 65-150)", "values": [{"measurement": "fold change of corrected Alexa/GFP emission ratio", "setting": "[1]", "value": 4, "unit": "fold"}, {"measurement": "Kd", "setting": "[2]", "value": 1100, "unit": "nM"}]}]}
